According to patent publication US8187838B2, “β-Galactoside-α2, 6-sialyltransferase, a gene encoding thereof, and a method for producing thereof” (Japan Tobacco Inc., priority 2006, dated 2012):

Key:
[1] = Sialic acid transfer reaction using various glycosyl acceptor substrates (monosaccharides, disaccharides, trisaccharide); type: biochemical; details: for Sialyltransferase activity: pH 5.0, 30° C., 500 mM NaCl
From the text: Cell homogenates prepared from E. coli cells into which JT-ISH-224-derived N1C0 had been introduced and from Photobacterium damselae strain JT0160 were each purified by ion exchange chromatography and hydroxyapatite chromatography to give an electrophoretically single band. The thus purified β-galactoside-α2,6-sialyltransferases were used in the following experiment in order to examine the presence or absence of sialyltransferase activity toward various monosaccharides, disaccharides and trisaccharides.
A reaction solution (24 μl) was prepared to contain CMP-^14C-NeuAc-containing CMP-NeuAc as a glycosyl donor substrate (10.9 nmol (8485 cpm), final concentration in the reaction solution: 0.455 mM), any of various glycosyl acceptor substrates dissolved in 20 mM cacodylate buffer (pH 5.0) (1 μmol, final concentration in the reaction solution: 42 mM), sialyltransferase (3.0 mU for JT-ISH-224-derived N1C0, 4.3 mU for JT0160) and NaCl (final concentration in the reaction solution: 500 mM), and reacted at 30° C. for 2 minutes or 60 minutes. The monosaccharides used as glycosyl acceptor substrates were the following 8 types: methyl-α-D-galactopyranoside (Gal-α-OMe), methyl-β-D-galactopyranoside (Gal-β-OMe), methyl-α-D-glucopyranoside (Glc-α-OMe), methyl-β-D-glucopyranoside (Glc-β-OMe), methyl-α-D-mannopyranoside (Man-α-OMe), methyl-β-D-mannopyranoside (Man-β-OMe), N-acetylgalactosamine ([…]), and N-acetylglucosamine ([…]). The disaccharides used were the following 5 types: lactose (Gal-β1,4-Glc), N-acetyllactosamine (Gal-β1,4-GlcNAc), methyl-β-D-galactopyranosyl-β1,3-N-acetylglucosaminide (Gal-β1,3-GlcNAc-β-OMe), methyl-α-D-galactopyranosyl-α1,3-galactopyranoside (Gal-α1,3-Gal-α-OMe), and methyl-β-D-galactopyranosyl-β1,3-galactopyranoside (Gal-β1,3-Gal-β-OMe). The trisaccharide used was 2′-fucosyllactose (Fuc-α1,2-Galβ1,4-Glc). It should be noted that the final concentration was set to 8.4 mM for the sugar chains shown in Table 4-2, i.e., methyl-α-D-galactopyranosyl-α1,3-[…] (Gal-α1,3-Gal-α-OMe), methyl-β-D-galactopyranosyl-β1,3-galactosaminide (Gal-β1,3-Gal-β-OMe) and 2′-fucosyllactose (Fuc-α1,2-Galβ1,4-Glc).
After completion of the enzymatic reaction, 1.98 ml of 5 mM phosphate buffer (pH 6.8) was added to the reaction solution to stop the enzymatic reaction. Then, the enzymatic reaction solution was diluted with 5 mM phosphate buffer (Ph 6.8) and applied in a volume of 2 ml to a AG1-×2Resin (PO4^3− form, 0.2×2 cm) column. This column was prepared as follows: AG1-×2Resin (OH^− form, BIO-RAD) was suspended in 1 M phosphate buffer (pH 6.8), and after 30 minutes, the resin was washed with distilled water and then suspended in distilled water. The eluate (0 to 2 ml) from this column was measured for its radioactivity. The eluate from this column contains the unreacted glycosyl acceptor substrate and the ^14C-NeuAc (N-acetylneuraminic acid)-bound reaction product which was generated by the reaction, whereas unreacted CMP-^14C-NeuAc is still retained on the column. Thus, the radioactivity of ^14C from each sialic acid-containing sugar chain generated as a result of the enzymatic reaction arises exclusively from the reaction product, so that the radioactivity of this fraction can be used to calculate the enzyme activity.
In the manner described above, the radioactivity of NeuAc transferred to each glycosyl acceptor substrate was measured to calculate the amount of transferred sialic acid.

[2] = tested on: asialofetuin; experiment: Sialic acid transfer to glycoprotein acceptor; type: biochemical; details: 25° C., 2 hours
Protocol: As a glycosyl acceptor substrate, asialofetuin was used. Asialofetuin (2 mg) was dissolved in 1 ml of 20 mM Bis-Tris buffer (pH 6.0) and used as a glycosyl acceptor substrate solution. As a glycosyl donor substrate, CMP-NeuAc was used. The glycosyl acceptor substrate solution (40 μl), the glycosyl donor substrate (5 μl) and either of the enzyme solutions (5 μl, 10 mU each) were mixed and incubated at 25° C. for 2 hours to cause sialic acid transfer reaction. After completion of the reaction, the reaction solution was gel-filtered by being applied to a SEPHADEX® G-50 Superfine (0.8×18.0 cm) equilibrated with 0.1 M sodium chloride. A glycoprotein-containing eluate fraction (2-4 ml fraction) from gel filtration was collected and measured for its radioactivity using a liquid scintillation counter to quantify sialic acid transferred to the glycosyl acceptor substrate.

B1: ISH224-N1C0 (protein, listed as Photobacterium sp.)
chain: MSEENTQSIIKNDINKTIIDEEYVNLEPINQSNISFTKHSWVQTCGTQQLLTEQNKESISLSVVAPRLDDDEKYCFDFNGVSNKGEKYITKVTLNVVAPSLEVYVDHASLPTLQQLMDIIKSEEENPTAQRYIAWGRIVPTDEQMKELNITSFALINNHTPADLVQEIVKQAQTKHRLNVKLSSNTAHSFDNLVPILKELNSFNNVTVTNIDLYDDGSAEYVNLYNWRDTLNKTDNLKIGKDYLEDVINGINEDTSNTGTSSVYNWQKLYPANYHFLRKDYLTLEPSLHELRDYIGDSLKQMQWDGFKKFNSKQQELFLSIVNFDKQKLQNEYNSSNLPNFVFTGTTVWAGNHEREYYAKQQINVINNAINESSPHYLGNSYDLFFKGHPGGGIINTLIMQNYPSMVDIPSKISFEVLMMTDMLPDAVAGIASSLYFTIPAEKIKFIVFTSTETITDRETALRSPLVQVMIKLGIVKEENVLFWADLPNCETGVCIAV
[1]; 14 monosaccharides, disaccharides and trisaccharide
  acceptor substrate specificity compared to the known JT0160 enzyme (in words): wider range of acceptor substrate specificity
[1]; acceptor 2′-Fucosyllactose (Fuc-α1,2-Galβ1,4-Glc), 8.4 mM, lactose = 100
  Sialyltransferase activity Relative activity (%): 92.1%
[1]; acceptor 2′-Fucosyllactose (Fuc-α1,2-Galβ1,4-Glc), 8.4 mM
  Sialyltransferase activity: 1.316 nmol/min
[1]; acceptor Lactose (Galβ1,4-Glc), 42 mM, Table 4-1
  Sialyltransferase activity: 1.875 nmol/min
[1]; acceptor Lactose (Galβ1,4-Glc), 42 mM, Table 4-1, set to 100
  Sialyltransferase activity Relative activity (%): 100.0%
[1]; acceptor Lactose (Galβ1,4-Glc), series of Table 4-2 (other acceptors 8.4 mM)
  Sialyltransferase activity: 1.428 nmol/min
[1]; acceptor Lactose (Galβ1,4-Glc), series of Table 4-2, set to 100
  Sialyltransferase activity Relative activity (%): 100.0%
[1]; acceptor Methylαgalactopyranoside (Galα-OMe), 42 mM, lactose = 100
  Sialyltransferase activity Relative activity (%): 2.0%
[1]; acceptor Methylαgalactopyranoside (Galα-OMe), 42 mM
  Sialyltransferase activity: 0.038 nmol/min
[1]; acceptor Methylαgalactopyranosyl α1,3-galactopyranoside (Galα1,3-Galα-OMe), 8.4 mM, lactose = 100
  Sialyltransferase activity Relative activity (%): 1.6%
[1]; acceptor Methylαgalactopyranosyl α1,3-galactopyranoside (Galα1,3-Galα-OMe), 8.4 mM
  Sialyltransferase activity: 0.023 nmol/min
[1]; acceptor Methylαglucopyranoside (Glcα-OMe), 42 mM, lactose = 100
  Sialyltransferase activity Relative activity (%): 0.4%
[1]; acceptor Methylαglucopyranoside (Glcα-OMe), 42 mM
  Sialyltransferase activity: 0.008 nmol/min
[1]; acceptor Methylαmannopyranoside (Manα-OMe), 42 mM, lactose = 100
  Sialyltransferase activity Relative activity (%): 0.5%
[1]; acceptor Methylαmannopyranoside (Manα-OMe), 42 mM
  Sialyltransferase activity: 0.010 nmol/min
[1]; acceptor Methylβ-galactopyranosylβ1,3-N-acetylglucosaminide (Galβ1,3-GlcNAcβ-OMe), 42 mM, lactose = 100
  Sialyltransferase activity Relative activity (%): 76.5%
[1]; acceptor Methylβ-galactopyranosylβ1,3-N-acetylglucosaminide (Galβ1,3-GlcNAcβ-OMe), 42 mM
  Sialyltransferase activity: 1.435 nmol/min
[1]; acceptor Methylβgalactopyranoside (Galβ-OMe), 42 mM, lactose = 100
  Sialyltransferase activity Relative activity (%): 59.2%
[1]; acceptor Methylβgalactopyranoside (Galβ-OMe), 42 mM
  Sialyltransferase activity: 1.110 nmol/min
[1]; acceptor Methylβgalactopyranosyl β1,3-galactopyranoside (Galβ1,3-Galβ-OMe), 8.4 mM, lactose = 100
  Sialyltransferase activity Relative activity (%): 67.5%
[1]; acceptor Methylβgalactopyranosyl β1,3-galactopyranoside (Galβ1,3-Galβ-OMe), 8.4 mM
  Sialyltransferase activity: 0.964 nmol/min
[1]; acceptor Methylβglucopyranoside (Glcβ-OMe), 42 mM, lactose = 100
  Sialyltransferase activity Relative activity (%): 0.5%
[1]; acceptor Methylβglucopyranoside (Glcβ-OMe), 42 mM
  Sialyltransferase activity: 0.009 nmol/min
[1]; acceptor Methylβmannopyranoside (Manβ-OMe), 42 mM, lactose = 100
  Sialyltransferase activity Relative activity (%): 0.4%
[1]; acceptor Methylβmannopyranoside (Manβ-OMe), 42 mM
  Sialyltransferase activity: 0.008 nmol/min
[1]; acceptor N-Acetylgalactosamine (GalNAc), 42 mM, lactose = 100
  Sialyltransferase activity Relative activity (%): 12.2%
[1]; acceptor N-Acetylgalactosamine (GalNAc), 42 mM
  Sialyltransferase activity: 0.228 nmol/min
[1]; acceptor N-Acetylglucosamine (GlcNAc), 42 mM, lactose = 100
  Sialyltransferase activity Relative activity (%): 0.4%
[1]; acceptor N-Acetylglucosamine (GlcNAc), 42 mM
  Sialyltransferase activity: 0.008 nmol/min
[1]; acceptor N-Acetyllactosamine (Gatβ1,4-GlcNAc), 42 mM, lactose = 100
  Sialyltransferase activity Relative activity (%): 99.3%
[1]; acceptor N-Acetyllactosamine (Gatβ1,4-GlcNAc), 42 mM
  Sialyltransferase activity: 1.861 nmol/min
[2]; 10 mU enzyme, glycoprotein fraction after gel filtration
  Radioactivity (cpm): 3051 cpm
[2]
  sialic acid transfer to asialofetuin (in words): higher efficiency of sialic acid transfer
